Measured values as given in the supplement of paper PMC10126150.
± gives the standard deviation of the averaged measurements.

Tested on: ATP
Assay: switch fluorescence ratio, 500 uM ATP over buffer (Cy3 cluster intensity, sum of 5 cycles each) (fold (ratio)); higher = stronger signal-on switching upon ATP binding; sequences stand for … in TCGTCGGCAGCGTCAGATGTGTATAAGAGACAGTTTTTTTTTTTTTTTTTTTTTTTTT…TC
Details: aptamer strand: ATP DNA aptamer (quencher-CACCTGGGGGAGTATTGCGGAGGAAGG + anchor), 100 nM annealed; ATP concentration: 500 uM
Summary of the method: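 Five buffer/ATP imaging cycles were run on Cy3-labelled switching-strand clusters on a modified Illumina MiSeq flow-cell, with NaOH stripping and re-annealing between cycles. In each cycle, clusters annealed to 100 nM quencher-labelled ATP aptamer were imaged in selection buffer, then after 15 min with 500 uM ATP at 22 °C. Per cluster, the fluorescence ratio is summed target-cycle over summed buffer-cycle Cy3 intensity, averaged per switch-domain sequence. Only clusters within 100-1000 RFU were kept.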
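Note: ATP exposure 15 min at 22 °C before imaging.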

Sequence | switch fluorescence ratio
TGGGGTTGAG | 0.984 ± 0.019
TGGGGTTGAT | 0.968 ± 0.033
TGGGGTTTCA | 1 ± 0.012
TGGGGTTTCC | 1.16 ± 0.32
TGGGTAAACA | 1.02 ± 0.012
TGGGTAACGT | 0.987 ± 0.033
TGGGTAAGGC | 0.961 ± 0.08
TGGGTAATGC | 1.27 ± 0.13
TGGGTAATTG | 1.01 ± 0.019
TGGGTACAGT | 1.03 ± 0.05
TGGGTAGGTT | 1.06 ± 0.035
TGGGTATAGG | 0.975 ± 0.016
TGGGTCCGTT | 1.01 ± 0.036
TGGGTCTCTA | 1 ± 0.018
TGGGTCTTGG | 0.9835 ± 0.0057
TGGGTGCCGT | 1.04 ± 0.034
TGGGTGGAGG | 1.02 ± 0.043
TGGGTGGCAA | 1.03 ± 0.05
TGGGTGGGAA | 1.02 ± 0.04
TGGGTGGGGG | 1 ± 0.024
TGGGTGGTCT | 0.9972 ± 0.0054
TGGGTGGTTT | 1.02 ± 0.019
TGGGTGTGCT | 1.01 ± 0.03
TGGGTGTTGC | 0.941 ± 0.083
TGGGTGTTTG | 1.03 ± 0.038

Sequence | switch fluorescence ratio
TGGGTTAAAG | 0.993 ± 0.016
TGGGTTAAGA | 1.01 ± 0.034
TGGGTTAATG | 0.9912 ± 0.0069
TGGGTTATCG | 0.998 ± 0.025
TGGGTTCGAA | 0.98 ± 0.013
TGGGTTGTTA | 0.9852 ± 0.0095
TGGGTTTCT | 1 ± 0.041
TGGGTTTCTG | 1.02 ± 0.021
TGGGTTTCTT | 1.016 ± 0.0055
TGGGTTTGAG | 0.99 ± 0.035
TGGGTTTGAT | 1.01 ± 0.041
TGGGTTTGTG | 0.996 ± 0.033
TGGTAAAATT | 1.031 ± 0.01
TGGTAAAGCA | 1.06 ± 0.11
TGGTAAAGGT | 0.985 ± 0.014
TGGTAATATT | 0.962 ± 0.015
TGGTAGTTCG | 1.01 ± 0.046
TGGTATAGGT | 0.994 ± 0.038
TGGTATGGGG | 1.03 ± 0.087
TGGTATGGGT | 1.23 ± 0.33
TGGTATGTAG | 1.02 ± 0.031
TGGTCCCCGG | 0.997 ± 0.025
TGGTCCGCTA | 1.755 ± 0.011
TGGTCCTAGG | 1 ± 0.016
TGGTCGTCCG | 0.971 ± 0.057

Sequence | switch fluorescence ratio
TGGTCGTTCT | 1.03 ± 0.033
TGGTCGTTTT | 1.01 ± 0.04
TGGTCTTCTC | 1.16 ± 0.26
TGGTCTTTGT | 1 ± 0.015
TGGTCTTTTT | 0.995 ± 0.037
TGGTGAGATC | 0.965 ± 0.0039
TGGTGAGGTG | 1.02 ± 0.02
TGGTGATTAG | 0.995 ± 0.023
TGGTGCTTGT | 1.02 ± 0.024
TGGTGGAGGT | 0.977 ± 0.011
TGGTGGCCTT | 1.03 ± 0.032
TGGTGGCGTT | 1.026 ± 0.0082
TGGTGGGGAT | 0.985 ± 0.029
TGGTGGGGCG | 1.11 ± 0.051
TGGTGGGGTC | 1 ± 0.034
TGGTGGTAGG | 0.984 ± 0.063
TGGTGGTCAG | 0.98151 ± 0.00069
TGGTGGTGTG | 0.983 ± 0.035
TGGTGGTTGT | 1.02 ± 0.012
TGGTGTACTT | 1.01 ± 0.012
TGGTGTATAG | 1 ± 0.036
TGGTGTCAGC | 1.02 ± 0.013
TGGTGTGAAT | 1.01 ± 0.036
TGGTGTGGGC | 0.985 ± 0.048
TGGTGTTGCT | 0.9797 ± 0.0068

Sequence | switch fluorescence ratio
TGGTGTTTGT | 0.983 ± 0.029
TGGTGTTTTA | 0.994 ± 0.023
TGGTTAAAGG | 0.978 ± 0.024
TGGTTAAGGA | 1 ± 0.013
TGGTTAAGGG | 1 ± 0.041
TGGTTAAGGT | 0.982 ± 0.033
TGGTTACTTC | 1.04 ± 0.028
TGGTTAGATT | 0.996 ± 0.034
TGGTTATACT | 0.973 ± 0.052
TGGTTCACGT | 1 ± 0.024
TGGTTCAGAG | 0.969 ± 0.044
TGGTTCGGGT | 1.03 ± 0.036
TGGTTGAATT | 0.992 ± 0.05
TGGTTGGACG | 0.997 ± 0.017
TGGTTGGGCC | 0.985 ± 0.06
TGGTTGGGTG | 1.03 ± 0.059
TGGTTGGTCA | 0.992 ± 0.01
TGGTTGTCGC | 0.991 ± 0.065
TGGTTTAATG | 0.997 ± 0.015
TGGTTTACTC | 1.14 ± 0.18
TGGTTTAGGG | 0.981 ± 0.026
TGGTTTAGTT | 0.998 ± 0.017
TGGTTTATTG | 1.01 ± 0.024
TGGTTTCATT | 1.01 ± 0.017
TGGTTTCTTT | 1.006 ± 0.0059
